# Measured values: PMC4227792 (Nucleic Acids Research, 2014)
# B1: Strep-tagged Csl4 of Sulfolobus solfataricus (natural protein, UniProt Q980J9 1-189, looked up)
# chain: MRTQGELTLPGEELAVIEEFMTGDGTYEQNGIVRAAVVGKIFYDMLNRKSNVLGFKKIIFQHLKKAKYVIGIVNSIKEDSALVSIVGIEERGLASPISAYLHISQISNKKINNVTDAIKIGDVIKAKLLSYTFPLALTIKMKDLGVIYARCSRCGYLLIKQDENNLKCQRCGNIEQRKIGSYMVKKGGN
# Experiments:
# Csl4-NT = molecular target: T1, Csl4-NT (Saccharolobus (Sulfolobus) solfataricus, UniProt Q980J9 1-189+=V+P95980:2-156, internal_change); experiment: EMSA; 25 fmol RNA; 20 mM HEPES pH 7.9, 60 mM KCl, 10 mM MgCl2, 10% glycerol, 2 mM DTT, 0.1 mM EDTA; room temperature 5 min, 10 ul; 5% native PAA gel at 4 C
# T1 sequence: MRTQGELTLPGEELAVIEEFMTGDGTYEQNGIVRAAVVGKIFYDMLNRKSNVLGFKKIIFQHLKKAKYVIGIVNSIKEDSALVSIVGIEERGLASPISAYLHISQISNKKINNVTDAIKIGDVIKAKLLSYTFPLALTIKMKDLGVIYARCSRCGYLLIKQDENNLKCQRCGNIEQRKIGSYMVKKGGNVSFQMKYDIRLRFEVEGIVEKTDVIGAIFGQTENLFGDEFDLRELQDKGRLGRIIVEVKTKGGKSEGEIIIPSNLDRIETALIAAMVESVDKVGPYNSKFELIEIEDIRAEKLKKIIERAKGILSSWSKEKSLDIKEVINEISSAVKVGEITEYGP
# Csl4 = molecular target: T2, Csl4 (Saccharolobus (Sulfolobus) solfataricus, UniProt Q980J9 1-189); experiment: as above
# T2 sequence: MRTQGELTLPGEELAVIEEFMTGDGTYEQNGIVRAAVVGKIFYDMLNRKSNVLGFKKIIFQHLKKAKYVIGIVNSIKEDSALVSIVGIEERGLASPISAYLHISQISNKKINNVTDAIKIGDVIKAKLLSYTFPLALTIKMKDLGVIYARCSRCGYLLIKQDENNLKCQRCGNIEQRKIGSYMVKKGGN
# DnaG-K6AY7A = molecular target: T3, DnaG-K6AY7A (Saccharolobus (Sulfolobus) solfataricus, UniProt P95980 1-406, K6A;Y7A); experiment: EMSA; 25 fmol RNA, 2.5 pmol protein; 20 mM HEPES pH 7.9, 60 mM KCl, 10 mM MgCl2, 10% glycerol, 2 mM DTT, 0.1 mM EDTA; room temperature 5 min, 10 ul; 5% native PAA gel at 4 C
# T3 sequence: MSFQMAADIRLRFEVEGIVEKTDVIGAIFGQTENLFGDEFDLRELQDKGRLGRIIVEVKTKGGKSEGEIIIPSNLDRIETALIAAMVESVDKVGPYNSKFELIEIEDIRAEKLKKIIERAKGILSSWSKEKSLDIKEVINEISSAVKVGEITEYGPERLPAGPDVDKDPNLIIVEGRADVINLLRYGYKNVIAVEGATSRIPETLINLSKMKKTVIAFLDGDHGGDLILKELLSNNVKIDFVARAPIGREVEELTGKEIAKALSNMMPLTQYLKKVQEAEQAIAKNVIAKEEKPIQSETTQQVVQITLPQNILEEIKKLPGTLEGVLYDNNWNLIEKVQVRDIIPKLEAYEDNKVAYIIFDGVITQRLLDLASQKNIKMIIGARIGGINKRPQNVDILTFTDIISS
# DnaG [1] = molecular target: T4, DnaG (Saccharolobus (Sulfolobus) solfataricus, UniProt P95980 1-406); experiment: as above
# T4 sequence: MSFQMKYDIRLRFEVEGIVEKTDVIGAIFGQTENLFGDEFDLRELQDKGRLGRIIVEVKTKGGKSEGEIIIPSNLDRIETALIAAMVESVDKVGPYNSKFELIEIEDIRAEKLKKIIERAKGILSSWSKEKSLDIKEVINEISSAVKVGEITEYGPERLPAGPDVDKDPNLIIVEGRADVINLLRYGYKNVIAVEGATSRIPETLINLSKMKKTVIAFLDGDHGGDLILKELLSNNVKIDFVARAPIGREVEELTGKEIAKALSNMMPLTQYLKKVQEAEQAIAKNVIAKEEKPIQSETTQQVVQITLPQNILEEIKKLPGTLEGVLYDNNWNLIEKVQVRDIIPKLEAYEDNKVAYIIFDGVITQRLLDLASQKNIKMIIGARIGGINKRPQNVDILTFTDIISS
# [2] = molecular target: T5, His6-Rrp42 of Sulfolobus solfataricus (Sulfolobus solfataricus, UniProt Q9UXC0 1-275); experiment: pull-down; subunits of the reconstituted Strep-Csl4 exosome (purified His6-Rrp41, His6-Rrp42 and Strep-tagged Csl4 mixed in buffer P0) recovered on Strep-Tactin Sepharose through Strep-Csl4, E. coli cell-free extract with DnaG-K6AY7A present; eluted with D-desthiobiotin; silver-stained SDS-PAGE; conditions: both partners purified
# T5 sequence (looked up): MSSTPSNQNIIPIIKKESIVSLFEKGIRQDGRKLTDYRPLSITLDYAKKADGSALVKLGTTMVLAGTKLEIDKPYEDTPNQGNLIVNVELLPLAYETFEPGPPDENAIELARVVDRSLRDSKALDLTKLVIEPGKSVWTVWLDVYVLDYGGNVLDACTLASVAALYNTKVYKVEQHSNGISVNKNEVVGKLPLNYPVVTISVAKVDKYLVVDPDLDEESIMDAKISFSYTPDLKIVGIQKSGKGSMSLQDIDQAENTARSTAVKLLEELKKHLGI
# [3] = molecular target: T6, His6-Rrp41 of Sulfolobus solfataricus (Sulfolobus solfataricus, UniProt Q9UXC2 1-248); experiment: as above; conditions: both partners purified
# T6 sequence (looked up): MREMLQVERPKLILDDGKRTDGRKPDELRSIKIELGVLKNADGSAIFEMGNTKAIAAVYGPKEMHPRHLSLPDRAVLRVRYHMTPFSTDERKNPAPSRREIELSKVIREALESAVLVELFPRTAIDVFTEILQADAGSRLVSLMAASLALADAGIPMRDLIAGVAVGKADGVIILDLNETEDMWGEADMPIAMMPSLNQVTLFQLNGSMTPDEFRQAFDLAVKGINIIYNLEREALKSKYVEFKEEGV
# DnaG [4] = molecular target: T4, DnaG; experiment: EMSA; 25 fmol DNA, 2.5 pmol protein; 20 mM HEPES pH 7.9, 60 mM KCl, 10 mM MgCl2, 10% glycerol, 2 mM DTT, 0.1 mM EDTA; room temperature 5 min, 10 ul; 5% native PAA gel at 4 C
binder,measurement,setting,value
AAAAAAAAAAAAAAAAAAAAAAAAAAAAAA (ssRNA) [poly(rA)30],binding result,Csl4-NT,binds
same,binding result,Csl4,no binding
same,binding result,DnaG-K6AY7A,no binding
same,binding result,DnaG [1],binds
B1,binding result,[2],binds
same,binding result,[3],binds
AAAAAAAAAAAAAAAAAAAAAAAAAAAAAA (ssDNA) [poly(dA)30],binding result,DnaG [4],no binding
